According to patent publication US7407655:

B1: I309 (ligand, human, UniProt P22362 24-96, looked up)
chain: KSMQVPFSRCCFSFAEQEIPLRAILCYRNTSSICSNEGLIFKLKRGKEACALDTVGWVQRHRKMLRHCPSKRK
B2: NAP-2 (ligand, human, UniProt P02775 59-128, looked up)
chain: AELRCMCIKTTSGIHPKNIQSLEVIGKGTHCNQVEVIATLKDGRKICLDPDAPRIKKIVQKKLAGDESAD
B3: PF4 (ligand, human, UniProt P02776 32-101, looked up)
chain: EAEEDGDLQCLCVKTTSQVRPRHITSLEVIKAGPHCPTAQLIATLKNGRKICLDLQAPLYKKIIKKLLES

biological target: human CXC Chemokine Receptor 3 (CXCR3) (human) (UniProt P49682); assay: cell-based or functional assay
Sequence (P49682 whole entry): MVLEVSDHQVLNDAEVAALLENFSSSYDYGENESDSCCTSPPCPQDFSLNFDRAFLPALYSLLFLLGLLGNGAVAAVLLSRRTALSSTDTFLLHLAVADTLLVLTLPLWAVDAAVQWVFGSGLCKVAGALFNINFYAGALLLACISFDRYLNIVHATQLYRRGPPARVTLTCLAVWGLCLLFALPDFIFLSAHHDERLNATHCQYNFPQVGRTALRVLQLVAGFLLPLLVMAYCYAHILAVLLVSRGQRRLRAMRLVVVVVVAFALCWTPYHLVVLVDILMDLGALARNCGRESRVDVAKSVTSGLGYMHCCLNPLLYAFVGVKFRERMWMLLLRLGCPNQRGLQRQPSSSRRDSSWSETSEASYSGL

[Ca^2+]i changes in IP-10/MigR transfectants | Molecule
> 100 nM | RANTES (from UniProt P13501 24-91) (ligand)
> 100 nM | GCP-2 (from UniProt P80162 38-114) (ligand)
> 100 nM | MIP-1α (from UniProt P10147 24-92) (ligand)
> 100 nM | lymphotactin (from UniProt P47992 22-114) (ligand)
> 100 nM | GROα (from UniProt P09341 35-107) (ligand)
> 100 nM | MCP-1 (from UniProt P13500 24-99) (ligand)
> 100 nM | ENA78 (from UniProt P42830 37-114) (ligand)
> 100 nM | IL-8 (from UniProt P10145 28-99) (ligand)
> 100 nM | eotaxin (from UniProt P51671 24-97) (ligand)
> 100 nM | MCP-4 (from UniProt Q99616 24-98) (ligand)
> 100 nM | MIP-1β (from UniProt P13236 24-92) (ligand)
> 100 nM | MCP-2 (from UniProt P80075 24-99) (ligand)
> 100 nM | MCP-3 (from UniProt P80098 24-99) (ligand)
> 100 nM | B1
> 100 nM | B2
> 100 nM | B3
